The source of these data is paper PMC3101288.

This assay addresses HlmI (thioredoxin-disulfide oxidoreductase-like dithiol oxidase of the holomycin gene cluster) (Streptomyces clavuligerus). The assay is described as follows: SEC.

Consider “HlmI (thioredoxin-disulfide oxidoreductase-like dithiol oxidase of the holomycin gene cluster) (enzyme)”, for which the stoichiometry N stood at 2.
